Two sequences from paper PMC8065639 can be followed below.

The data set has as its target T1, GST-PA14_51020-His (antitoxin) (Pseudomonas aeruginosa PA14) (UniProt A0A0H2Z7N8).
T1 sequence: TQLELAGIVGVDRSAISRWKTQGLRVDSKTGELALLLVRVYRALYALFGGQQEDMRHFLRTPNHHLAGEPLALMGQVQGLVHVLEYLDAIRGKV
As to the kind of experiment: EMSA.

As for “CGGGCTGGAAGGTGGAGCGGGGAATCCGTCTGCAGGCGCCGCCTTTCTCCGATCACGAGGCTGCGCTGACCGACATCGCCGACTACCGCGCTCCCCAGGAACTGGGGAGTGCCATGCGCAGCGCCGGGGTGCAGGCATTCGAATACCGTTCGGCGCGTTGCCCGGAGCGCGGCTGCAATGTCGCCCTGTTCACGCCCGCG (double strand) [PA14_51010 coding region internal fragment]”, the binding entry was “no binding”.

In the case of “GTTTTTCTCTCTATCACGCCGGTCAATGCTTGCGCGTGGTTCTCTAGGTTCGACCGAATCAAGGTGTGTTTTCAGCAAAATAATGATAGTTTGTTGTAAACACACATGAGGAGGTCGTCATGAGCGCTCTCATCAAGGAACGTCCCAGCGCCGATGCTGTCCTGGCCAAGGCCGTCCTGGCCGCGCGCGAGCAATTGGGG (double strand) [PA14_51020 upstream (operon promoter) fragment]”, the binding entry was “binds”.
